Key:
[1] = target: Human CLDN18.1 (human) (UniProt P56856); experiment: FACS, hybridoma culture supernatant on 293T-human CLDN18.1 cells (permeable membrane treatment)
[2] = target: Human CLDN18.1 (human) (UniProt P56856); experiment: FACS, hybridoma culture supernatant on CHO-human CLDN18.1 cells (permeable membrane treatment)

Sequence of Human CLDN18.1 (human) (P56856 whole entry): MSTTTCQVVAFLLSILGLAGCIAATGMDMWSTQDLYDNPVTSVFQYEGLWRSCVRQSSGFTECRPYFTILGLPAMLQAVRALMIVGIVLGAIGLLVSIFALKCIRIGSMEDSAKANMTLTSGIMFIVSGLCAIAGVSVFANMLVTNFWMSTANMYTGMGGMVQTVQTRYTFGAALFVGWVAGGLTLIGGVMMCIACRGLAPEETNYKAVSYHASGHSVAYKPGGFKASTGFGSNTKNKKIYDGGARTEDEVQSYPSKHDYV

Binder | Average fluorescence intensity [1] | Average fluorescence intensity [2]
7E3 (hybridoma clone, murine CLDN18.2 antigen-binding protein) (antibody, V domains shown) VH: EVQLQQSGPELVKPGASVKMSCKASGYTFTNYIIHWVKQKPGQGLEWIGYINPYTDGPKYNEKFKGRATLTSDKSSSTAYMEFSSLTSEDSAVYYCARLNRGNAMDYWGQGTSVTVSS VL: DIVMTQSPSSLTVTVREKVTLSCKSSQSLLNSGNQKNYLTWYQQKPGQPPKLLIYWASTRESGVPDRFTGSGSGTDFTLTISSVQAEDLAVYYCQNVYIYPFTFGAGTKLELKR | 3040 | 3380
5E6 (hybridoma clone, murine CLDN18.2 antigen-binding protein) (antibody, V domains shown) VH: EVQLQQSGPELVKPGASVKMSCKASGYTFTNYVMNWVKQKPGQGLEWIGYINPYNDGTKYNERFKGKATLTSDKSSSTAFMEVSSLTSEDSAVYYCARLYRGNAMDYWGQGTSVTVSS VL: DIVMTQSPSSLTVTVREKVTLSCKSSQSLLNSGNQKNYLTWYQQKPGQPPKLLIYWASTRESGVPDRFTGSGSGTDFTLTISSVQAEDLAVYYCQNVYIYPFTFGAGTKLELKR | 4330 | 5370

Next, values leading:

Average fluorescence intensity [1] | Average fluorescence intensity [2] | Binder
2580 | 1860 | 14E12 (hybridoma clone, murine CLDN18.2 antigen-binding protein) (antibody, V domains shown) VH: EVQLQESGPELVKPGASVKMSCKASGYTFTNYIIHWVKQKPGQGLEWIGYINPYTDGPKYNEKFKGRATLTSDKSSSTAYMEFSSLTSEDSAVYYCARLNRGNAMDYWGQGTSVTVSS VL: DIVMTQSPSSLSVSAGEKVTMSCKSSQSLLNNGNQKNYLAWYQQKPGQPPKLLIYGASTRESGVPDRFTGSGSGTDFALTISSVQAEDLAVYYCQNDLYYPFTFGSGTKLDIKR
2400 | 1680 | 17B10 (hybridoma clone, murine CLDN18.2 antigen-binding protein) (antibody, V domains shown) VH: EVQLQESGPELVKPGASVKMSCKASGYTFTNYIIHWVKQKPGQGLEWIGYINPYTDGPKYNEKFKGRATLTSDKSSSTAYMEFSSLTSEDSAVYYCARLNRGNAMDYWGQGTSVTVSS VL: DIVMTQSPSSLTVTAGEKVTMNCKSSQSLLNSGNQKNYLTWYQQKPGQPPKLLIYWASTRESGVPDRFTGSGSGTDFTLTISSVQAEDLAVYYCQNDYSFPFTFGSGTKLEIKR

— patent publication US20240182562A1
